Each block holds one binder with its values, some of them ahead of it.
Legend:
[1] = target: T1, WT (human, UniProt Q9NZQ7); test: ELISA on coated antigen, column WT
T1 construct: recombinant; also called hPD-L1; antigen PD-L1 wild type (WT)
Description: (§1) An antigen PD-L1 wild type (WT) or several mutants were coated at a density of 100 ng/well on a 96-well immunoplate at 4° C. for 16 hours and the wells were blocked with 4% skim milk dissolved in PBS. Each well was washed with 0.2 ml of PBS/T, and then a single clone scFv-phage (each […]) cultured for 16 hours was added in a dose of 100 μl to each well and reacted at room temperature for 2 hours. Again, each well was washed 4 times with 0.2 ml of PBS/T, and then the second antibody, anti-Fab, was diluted to 1/2000 and reacted at room temperature for 1 hour. After washing with 0.2 ml of PBS/T, color development was performed and absorbance was measured at 490 nm.

[2] = target: mouse PD-L1 protein (mouse, UniProt Q9EP73 19-238, limits assumed); test: ELISA on coated antigen, column mPD-L1
Description: as §1

[3] = target: M5; test: ELISA on coated antigen, column M5
Description: as §1

[4] = target: PD-L1 on CHO cell line highly expressing PD-L1 (PD-1/PD-L1 blockade bioassay kit, promega J1250) (UniProt Q9NZQ7 19-290, limits assumed); test: cell-based or functional assay
[5] = target: M8; test: ELISA on coated antigen, column M8
Description: as §1

[6] = target: M4; test: ELISA on coated antigen, column M4
Description: as §1

[7] = target: M2; test: ELISA on coated antigen, column M2
Description: as §1

[8] = target: T2, ITGA6; test: ELISA on coated antigen, column ITGA6
T2 construct: unrelated antigen column; all antibodies give 0.5 to 0.6
T2 sequence (P23229 whole entry, species assumed, looked up): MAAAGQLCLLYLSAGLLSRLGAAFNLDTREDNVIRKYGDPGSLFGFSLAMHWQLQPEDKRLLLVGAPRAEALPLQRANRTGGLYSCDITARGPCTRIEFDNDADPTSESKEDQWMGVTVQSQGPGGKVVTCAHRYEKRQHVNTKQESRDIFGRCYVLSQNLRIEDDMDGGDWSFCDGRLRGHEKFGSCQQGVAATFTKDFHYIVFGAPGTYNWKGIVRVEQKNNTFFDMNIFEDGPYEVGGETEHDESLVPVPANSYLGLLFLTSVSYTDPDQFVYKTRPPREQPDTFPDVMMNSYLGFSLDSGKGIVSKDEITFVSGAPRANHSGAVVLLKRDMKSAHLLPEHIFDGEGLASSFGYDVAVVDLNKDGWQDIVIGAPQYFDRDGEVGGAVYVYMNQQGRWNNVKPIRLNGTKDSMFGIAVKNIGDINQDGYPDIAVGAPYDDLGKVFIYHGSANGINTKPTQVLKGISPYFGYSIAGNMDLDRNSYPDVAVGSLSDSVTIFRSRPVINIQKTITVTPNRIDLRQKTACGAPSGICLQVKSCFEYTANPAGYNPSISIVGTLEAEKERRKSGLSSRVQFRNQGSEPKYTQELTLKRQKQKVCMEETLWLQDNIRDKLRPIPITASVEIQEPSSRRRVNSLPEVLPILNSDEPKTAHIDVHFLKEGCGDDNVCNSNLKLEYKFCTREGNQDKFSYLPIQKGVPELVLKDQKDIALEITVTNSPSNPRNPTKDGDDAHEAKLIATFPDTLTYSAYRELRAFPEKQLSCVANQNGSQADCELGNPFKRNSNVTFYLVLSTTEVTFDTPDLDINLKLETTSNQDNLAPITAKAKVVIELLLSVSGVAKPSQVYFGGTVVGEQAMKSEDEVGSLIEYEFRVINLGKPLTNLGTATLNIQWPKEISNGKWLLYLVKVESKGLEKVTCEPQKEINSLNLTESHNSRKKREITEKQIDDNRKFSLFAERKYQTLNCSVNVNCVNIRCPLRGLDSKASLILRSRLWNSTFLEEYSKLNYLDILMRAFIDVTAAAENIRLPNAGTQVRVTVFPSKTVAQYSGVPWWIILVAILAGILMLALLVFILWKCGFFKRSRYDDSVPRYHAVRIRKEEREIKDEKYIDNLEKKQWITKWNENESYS

[9] = target: M7; test: ELISA on coated antigen, column M7
[10] = target: M3; test: ELISA on coated antigen, column M3
[11] = target: M6; test: ELISA on coated antigen, column M6
Description: as §1

[12] = target: M1; test: ELISA on coated antigen, column M1
Description: as §1

T1 sequence (Q9NZQ7 19-238 limits assumed): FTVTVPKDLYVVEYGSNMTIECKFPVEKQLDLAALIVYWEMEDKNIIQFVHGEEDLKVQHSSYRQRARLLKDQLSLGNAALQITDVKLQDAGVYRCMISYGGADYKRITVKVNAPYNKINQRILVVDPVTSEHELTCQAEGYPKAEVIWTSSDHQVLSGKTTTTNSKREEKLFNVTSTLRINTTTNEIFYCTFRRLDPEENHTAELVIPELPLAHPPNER
mouse PD-L1 protein, sequence (Q9EP73 19-238 limits assumed): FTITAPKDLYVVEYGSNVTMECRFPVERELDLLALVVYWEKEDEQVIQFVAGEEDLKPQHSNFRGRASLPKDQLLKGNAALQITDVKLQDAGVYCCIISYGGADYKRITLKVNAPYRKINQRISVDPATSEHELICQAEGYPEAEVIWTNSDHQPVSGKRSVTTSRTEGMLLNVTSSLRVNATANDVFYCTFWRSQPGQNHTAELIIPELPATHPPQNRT
PD-L1 on CHO cell line highly expressing PD-L1 (PD-1/PD-L1 blockade bioassay kit, promega J1250), sequence (Q9NZQ7 19-290 limits assumed): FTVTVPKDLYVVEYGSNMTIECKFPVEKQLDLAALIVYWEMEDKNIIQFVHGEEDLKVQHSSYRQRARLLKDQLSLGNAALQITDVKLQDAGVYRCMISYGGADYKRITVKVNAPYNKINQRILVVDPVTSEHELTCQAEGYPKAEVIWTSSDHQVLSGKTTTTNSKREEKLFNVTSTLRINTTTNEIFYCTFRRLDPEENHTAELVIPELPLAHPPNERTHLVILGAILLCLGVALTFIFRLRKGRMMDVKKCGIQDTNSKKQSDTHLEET

B1: PDL1-27F8 (antibody, V domains shown)
VH: QVQLVQSGAEVKKPGSSVKVSCKASGGTFSSSAFSWVRQAPGHGLEWMGRIIPMFDMTDYAQRFQGRLTIIADESSSTAYMELSSLRSEDTAVYYCARSNPHYMDVWGQGTTVTVSS
VL: QLVLTQPPSVSGAPGQRVTISCTGSNSDIGAGHDVHWYQQIPGTAPKVLIYGNTDRPSGVPDRFSGSKSGTSASLAITGLQAEDEADYYCQSYDSSLSGYVFGTGTKVTVL
notes: Only FR/CDR pieces are tied to the clone
absorbance at 490 nm [1]: 2.9
absorbance at 490 nm [2]: 0.1
binding result [2]: no binding
absorbance at 490 nm [3]: 2.9
Average *EC50 [nM], PD-1/PD-L1 blockade bioassay [4]: 1.1 nM
absorbance at 490 nm [5]: 2
absorbance at 490 nm [6]: 0.4
absorbance at 490 nm [7]: 2.5
absorbance at 490 nm [8]: 0.5
absorbance at 490 nm [9]: 3
absorbance at 490 nm [10]: 0.9
absorbance at 490 nm [11]: 2.9
absorbance at 490 nm [12]: 2.6

B4: PDL1-23E10 (scFv, V domains shown)
VH: QMQLVESGAEVKKPGSSVKVSCKVSGENFRSHAISWVRQAPGQGLEWMGRIIPIVGLADYPQKFQGRVTISADESTGTAYMDLSSLRSEDTAVYYCVTGRPPWHWGQGILITVSS
VL: QLVLTQPPSVSGAPGQRVTISCTGSSSNIGAGYDVHWYQQLPGTAPKLLIYSNRNRPSGVPDRFSGSKSGTSASLAITGLQAEDEADYYCQSYDSSLSGPNYVFGTGTKVTVL
absorbance at 490 nm [1]: 2.2
absorbance at 490 nm [2]: 0.3
binding result [2]: no binding
absorbance at 490 nm [3]: 2.2
absorbance at 490 nm [5]: 1
absorbance at 490 nm [6]: 0.5
absorbance at 490 nm [7]: 2.1
absorbance at 490 nm [8]: 0.5
absorbance at 490 nm [9]: 2.3
absorbance at 490 nm [10]: 0.7
absorbance at 490 nm [11]: 2.2
absorbance at 490 nm [12]: 2.1

B5: PDL1-23E5 (antibody, V domains shown)
VH: QVQLVQSGAEVVKPGSSVKVSCKASGDTFSRYAISWVRQAPGQAPEWMGRIIPVLGAANYARKFQDRVTITADISTTTAFMELTSLRSEDTAVYYCARSLSGYSLGAFDVWGPGTLVTVSS
VL: QLVLTQPPSVSGAPGQSVSISCIGSNSNIGTPYDVHWYQQIPGEAPKLLIYGSTNRPSGVPDRFSGSRSGSSASLDITGLQADDEAYYYCQSYDRSLGVSDVVFGGGTKLTVL
notes: as for B1
absorbance at 490 nm [1]: 2.5
absorbance at 490 nm [2]: 2.5
absorbance at 490 nm [3]: 2.5
Average *EC50 [nM], PD-1/PD-L1 blockade bioassay [4]: 1.61 nM
absorbance at 490 nm [5]: 2.6
absorbance at 490 nm [6]: 0.5
absorbance at 490 nm [7]: 2.4
absorbance at 490 nm [8]: 0.5
absorbance at 490 nm [9]: 2.6
absorbance at 490 nm [10]: 0.9
absorbance at 490 nm [11]: 2.5
absorbance at 490 nm [12]: 2.4

B6: PDL1-22B10 (antibody, V domains shown)
VH: QVQLVQSGAEVKKPGSSVKVSCRASGGTFSSYAISWVRQAPGQGLEWMGRIIPILGIANYAQKFQGRVTITADKSTSTAYMELSSLRSEDTAVYYCARDFVLSGSATVFDPWGQGTLVTVSS
VL: QFVLTQPPSVSGAPGQRVTISCTGSSTNIGAGYDVHWYQQLPGKAPKVVIYGNSNRPSGVLDRFSASKSATSASLAITGLQAEDEADYYCQSYDSSLSGYVFGTGTKVTVL
notes: as for B1
absorbance at 490 nm [1]: 2.5
absorbance at 490 nm [2]: 0.2
binding result [2]: no binding
absorbance at 490 nm [3]: 2.5
absorbance at 490 nm [5]: 2.6
absorbance at 490 nm [6]: 0.4
absorbance at 490 nm [7]: 2.3
absorbance at 490 nm [8]: 0.5
absorbance at 490 nm [9]: 2.5
absorbance at 490 nm [10]: 1
absorbance at 490 nm [11]: 2.5
absorbance at 490 nm [12]: 2.3

Further lines, results first:

absorbance at 490 nm [1]: 2.5
absorbance at 490 nm [2]: 1.8
absorbance at 490 nm [3]: 2.9
Average *EC50 [nM], PD-1/PD-L1 blockade bioassay [4]: 1.74 nM
absorbance at 490 nm [5]: 3
absorbance at 490 nm [6]: 0.7
absorbance at 490 nm [7]: 2.7
absorbance at 490 nm [8]: 0.5
absorbance at 490 nm [9]: 3
absorbance at 490 nm [10]: 1.1
absorbance at 490 nm [11]: 2.9
absorbance at 490 nm [12]: 2.8
B2: PDL1-31B7 (antibody, V domains shown)
VH: QVQLVESGAEVKKPGSSVKVSCKASGGTFSSYAISWVRQAPGQGLEWMGRIIPILGIANYAQKFQGRVTITADKSTSTAYMELSSLRSEDTAVYYCARASSGYSVGAFDIWGQGTMVTVSS
VL: QLVLTQPPSVSAPPGQKVTISCSGSSSNIGNNYVSWYQQLPGTAPKLLIYDNNERPSGIPDRFSASKSGTSATLGISGLQTGDEADYYCGTWDSSLSAGVFGGGTKLTVL
notes: as for B1

absorbance at 490 nm [2]: 0.1
binding result [2]: no binding
absorbance at 490 nm [3]: 2.6
absorbance at 490 nm [5]: 2.7
absorbance at 490 nm [6]: 2.6
absorbance at 490 nm [7]: 2.5
absorbance at 490 nm [8]: 0.6
absorbance at 490 nm [9]: 2.7
absorbance at 490 nm [10]: 2.8
absorbance at 490 nm [11]: 2.6
absorbance at 490 nm [12]: 2.6
B3: PDL1-30B1 (antibody, V domains shown)
VH: QVQLVESGGGVVQPGRSLRLSCAASGFTFSSYAMHWVRQGPGKGLEWVAVISYDGSNEFYADSVKGRFTISRDNSKNTLYLQMNSLRAEDTAVYYCARGDYNGVYMDVWGQGTTVTVSS
VL: DIVMTQTPLSLSVTPGQPASISCKSSQSLLHSDGKTYLYWYLQKPGQSPQLLIYEVSKRFSGVPDRFSGSGSGTDFTLKIGRVEAEDVGVYYCMQGLHLPYTFGQGTKLEIK
notes: as for B1

absorbance at 490 nm [1]: 2.2
absorbance at 490 nm [2]: 1.3
absorbance at 490 nm [3]: 2.7
absorbance at 490 nm [5]: 1.9
absorbance at 490 nm [6]: 2.4
absorbance at 490 nm [7]: 1.8
absorbance at 490 nm [8]: 0.5
absorbance at 490 nm [9]: 2.5
absorbance at 490 nm [10]: 1
absorbance at 490 nm [11]: 2.5
absorbance at 490 nm [12]: 2.1
B7: PDL1-31E6 (antibody, V domains shown)
VH: QVQLVQSGAEVKKPGSSVKVSCKASGGTFSSYAISWVRQAPGQGLEWMGGIIPIFGTANYAQKFQGRVTITADESTSTAYMELSSLRSEDTAVYYCARGGRSFGAFDSWGQGALVTVSS
VL: DIQMTQSPATLSLSPGERATLSCTASQSISSYLAWYQQKPGQAPRLLIYDSSNRATGIPARFSGSGSGTAFTLTISSLEPEDFAVYFCQQRGQWPLTFGGGTKVDIK
notes: as for B1

absorbance at 490 nm [1]: 2.5
absorbance at 490 nm [2]: 0.1
binding result [2]: no binding
absorbance at 490 nm [3]: 1.8
absorbance at 490 nm [5]: 1.8
absorbance at 490 nm [6]: 1.8
absorbance at 490 nm [7]: 1.7
absorbance at 490 nm [8]: 0.5
absorbance at 490 nm [9]: 1.9
absorbance at 490 nm [10]: 2.5
absorbance at 490 nm [11]: 1.9
absorbance at 490 nm [12]: 1.6
B8: PDL1-31D9 (antibody, V domains shown)
VH: QMQLVESGGGLVQPGGSLRLSCSASGFTFSSYVMHWVRQAPGKGLEYVSAISSNGGSTYYADSVKGRFTISRDNSKNTLYLQMSSLRSEDTAVYYCAREHFSTYSYGVDVWGPGTTVTVSS
VL: DIVMTQTPLSLPVTPGEPASISCRSSQSLLDSDDGNTYLDWYLQKPGQSPQLLIYMISFRASGVPDRFSGSGSGTDFTLKISRVEAEDSGIYYCMQRVEFPYTFGQGTKLEIK
notes: as for B1
